Experimental findings from patent US20220073631A1 are described below.

Assay [1] deals with hIL-4Rα-ECD (wild-type hIL-4Rα extracellular domain with C-terminus his-tag) (human) (UniProt P24394). As to the kind of experiment: SPR, Biacore T200, by the methods of Example 2; mean of three experiments.
Assay [2] addresses human IL-4Rα (Shanghai Novoprotein Technology Co., Ltd) (human) (UniProt P24394). Briefly: SPR, Biacore T200, antibody captured on protein A, antigen as analyte, 25 C, 1:1 model.

B1: Dupilumab (antibody, INN chains, looked up, V domains shown)
VH: EVQLVESGGGLEQPGGSLRLSCAGSGFTFRDYAMTWVRQAPGKGLEWVSSISGSGGNTYYADSVKGRFTISRDNSKNTLYLQMNSLRAEDTAVYYCAKDRLSITIRPRYYGLDVWGQGTTVTVSS
VL: DIVMTQSPLSLPVTPGEPASISCRSSQSLLYSIGYNYLDWYLQKSGQSPQLLIYLGSNRASGVPDRFSGSGSGTDFTLKISRVEAEDVGFYYCMQALQTPYTFGQGTKLEIKR
In assay [1], B1 had a Kd of 0.0588 nM, an off-rate constant (koff) of 4.29e-05 s⁻¹ and a kon of 707000 M⁻¹ s⁻¹. In assay [2], this molecule returned a Kd of 0.136 nM, a koff of 0.00011 s⁻¹ and an on-rate constant (kon) of 808000 M⁻¹ s⁻¹.
